Tests used:
[1] = Enzymatic activity of orally administered enzyme after passage through proteolytic sections of the GI tract; format: in vivo; conditions: oral administration
[2] = Oral gavage of GUSB followed by curcumin in mice; assay of curcumin metabolites in serum and bone; format: in vivo, C57BI6 mice; conditions: after oral administration of GUSB with curcumin; FIG. 1
Excerpt: Experimental Methods: Administer 140 U/g body weight of GUSB (E. coli-derived [Sigma G840]) orally via gavage (vs vehicle) to 10-week-old male C57BI6 mice.

B1: GUSB: Beta-glucuronidase enzyme; E. coli-derived [Sigma G840] in Example 1 (protein, UniProt P05804 1-603, looked up)
Beta-glucuronidase: MLRPVETPTREIKKLDGLWAFSLDRENCGIDQRWWESALQESRAIAVPGSFNDQFADADIRNYAGNVWYQREVFIPKGWAGQRIVLRFDAVTHYGKVWVNNQEVMEHQGGYTPFEADVTPYVIAGKSVRITVCVNNELNWQTIPPGMVITDENGKKKQSYFHDFFNYAGIHRSVMLYTTPNTWVDDITVVTHVAQDCNHASVDWQVVANGDVSVELRDADQQVVATGQGTSGTLQVVNPHLWQPGEGYLYELCVTAKSQTECDIYPLRVGIRSVAVKGEQFLINHKPFYFTGFGRHEDADLRGKGFDNVLMVHDHALMDWIGANSYRTSHYPYAEEMLDWADEHGIVVIDETAAVGFNLSLGIGFEAGNKPKELYSEEAVNGETQQAHLQAIKELIARDKNHPSVVMWSIANEPDTRPQGAREYFAPLAEATRKLDPTRPITCVNVMFCDAHTDTISDLFDVLCLNRYYGWYVQSGDLETAEKVLEKELLAWQEKLHQPIIITEYGVDTLAGLHSMYTDMWSEEYQCAWLDMYHRVFDRVSAVVGEQVWNFADFATSQGILRVGGNKKGIFTRDRKPKSAAFLLQKRWTGMNFGEKPQQGGKQ
[1]
  enzymatic activity after passing through the proteolytic sections of the GI tract (stomach and duodenum): retain their enzymatic activity
[2]
  enzyme levels in the body: unchanged

From patent US20250041389A1, “ENHANCING ABSORPTION OF DIETARY COMPOUNDS TO PROMOTE HEALTH” (ARIZONA BOARD OF REGENTS ON BEHALF OF THE UNIVERSITY OF …, priority 2023, published 2025)
